Tests used:
Assay in all cases: cell_activity
[1] = tested on: TsCas12a (Thiomicrospira sp.?); conditions: PAM TTTV; stable transgenic rice
[2] = tested on: BsCas12a (Butyrivibrio sp.?); conditions: PAM TTTV
MAD7 = conditions: PAM TTTV
CMaCas12a = conditions: PAM TTTV; rice protoplasts
Lb5Cas12a = conditions: PAM TTTV; rice protoplasts
MbCas12a = conditions: PAM TTTV; rice protoplasts
Mb2Cas12a = tested on: Mb2Cas12a
MlCas12a = conditions: PAM TTTV; rice protoplasts
BoCas12a = conditions: PAM TTTV; rice protoplasts

AAGAAGGGUUAUGGCCAAUGCUU / TCCATTTGTTTGAAGAAGGGTTATGGCCAATGCTTGCCC / GGGCAAGCATTGGCCATAACCCTTCTTCAAACAAATGGA [crRNA OsEPFL9 spacer 23 nt ; OsEPFL9-TTTV target]
activity [1]: > 80 % editing
activity ([2]; stable transgenic rice): > 80 % editing
activity (MAD7; stable transgenic rice): > 80 % editing
activity (CMaCas12a): 5.1 % editing

CAGAAAGAGAAGGAGGCACAGAU / CTTTTCCAGAAAGAGAAGGAGGCACAGATCTTGCCGT / ACGGCAAGATCTGTGCCTCCTTCTCTTTCTGGAAAAG [crRNA OsDEP1-TTTV spacer (inferred) ; OsDEP1-TTTV target]
activity (Lb5Cas12a): 28.8 % editing
activity (MbCas12a): 7.2 % editing
activity ([2]; rice protoplasts): 20.1 % editing
activity (Mb2Cas12a; PAM TTTV, rice protoplasts): 19.7 % editing
activity (MlCas12a): 13.9 % editing
activity (MAD7; rice protoplasts): 34.1 % editing
activity (BoCas12a): 7.8 % editing
activity (CMaCas12a): 2.7 % editing

CUCAAGGUGAGCGCCCCGCGGCG / GTTCCTCAAGGTGAGCGCCCCGCGGCGGCGGCGGCTG / CAGCCGCCGCCGCCGCGGGGCGCTCACCTTGAGGAAC [crRNA OsDEP1-TTV spacer (inferred) ; OsDEP1-TTV target]
activity (Mb2Cas12a; PAM TTV, 22 C): 6.4 % indels

CUGGGCUCGGCGUCCUCGACGUC / GAGTTGCTGGGCTCGGCGTCCTCGACGTCGTCCTCGCCG / CGGCGAGGACGACGTCGAGGACGCCGAGCCCAGCAACTC [crRNA OsR005-TTV spacer (inferred) ; OsR005-TTV target]
activity (Mb2Cas12a; PAM TTV, 22 C): 8.3 % indels
